Results reported in US20220267464A1 (Hoffmann-La Roche, published 2022).
Substitutions are numbered along the chain they refer to. Numbers in names are those of the source.

T1: human CEACAM5 (carcinoembryonic antigen, CEA) on cells (human, UniProt P06731 35-685)
T1 construct: endogenous on MKN45 gastric adenocarcinoma cells; full-length cDNA stably transfected in the CHO-K1 clones; also called huCEACAM5; MKN45 cells
T1 sequence: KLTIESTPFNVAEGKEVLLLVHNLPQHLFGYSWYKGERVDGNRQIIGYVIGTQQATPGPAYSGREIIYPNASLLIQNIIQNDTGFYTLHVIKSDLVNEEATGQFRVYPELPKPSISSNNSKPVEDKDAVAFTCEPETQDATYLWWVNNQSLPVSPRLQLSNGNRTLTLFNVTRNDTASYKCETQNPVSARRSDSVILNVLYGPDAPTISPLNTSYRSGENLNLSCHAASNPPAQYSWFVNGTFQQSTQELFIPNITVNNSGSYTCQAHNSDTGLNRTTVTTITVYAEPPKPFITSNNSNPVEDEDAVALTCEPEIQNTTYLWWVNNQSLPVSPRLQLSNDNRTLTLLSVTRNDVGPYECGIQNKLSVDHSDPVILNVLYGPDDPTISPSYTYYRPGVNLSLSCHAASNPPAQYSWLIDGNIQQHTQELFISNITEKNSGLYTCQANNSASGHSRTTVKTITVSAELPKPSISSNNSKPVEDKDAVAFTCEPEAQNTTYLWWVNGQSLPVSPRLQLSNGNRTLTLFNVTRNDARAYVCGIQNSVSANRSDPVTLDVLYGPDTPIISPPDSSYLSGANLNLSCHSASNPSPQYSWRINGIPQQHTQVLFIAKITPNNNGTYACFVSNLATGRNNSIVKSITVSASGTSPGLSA

B1: P1AE3113 (antibody, IgG1, V domains shown)
VH: QVQLVQSGAEVKKPGASVKVSCKASGFNIKDSYMHWVRQAPGQGLEWMGWIDPENGDTEYAPKFQGRVTMTTDTSISTAYMELSRLRSDDTAVYYCNEGTPTGPYYFDYWGQGTLVTVSS
VL: EIQMTQSPSSLSASVGDRVTITCRASQSISSYMHWYQQKPGKAPKLLIYSTSNLASGVPSRFSGSGSGTDFTLTISSLQPEDFATYYCQQRSSYPLTFGGGTKLEIK
notes: huIgG1 P329G LALA; also called MFE-H24 / MFE-L26
B2: P1AE3107 (antibody, IgG1, V domains shown)
VH: B1 VH
VL: EIQMTQSPSSLSASVGDRVTITCRASSSVPYMHWYQQKPGKAPKLLIYSTSNLASGVPSRFSGSGSGTDFTLTISSVQPEDFATYYCQQRSSYPLTFGGGTKLEIK
notes: huIgG1 P329G LALA; also called MFE-H24 / MFE-L27; huMFE23-L27-H24
B3: P1AE3111 (antibody, IgG1, V domains shown)
VH: B1 VH with D57G, E59N, P62Q
VL: B1 VL
notes: huIgG1 P329G LALA; also called MFE-H26 / MFE-L26
B4: P1AE3093 (antibody, IgG1, V domains shown)
VH: B1 VH with D57G, E59N, P62Q
VL: B2 VL with Y35L, N52S, A54Q
notes: huIgG1 P329G LALA; also called MFE-H26 / MFE-L29
B5: P1AE3103 (antibody, IgG1, V domains shown)
VH: B1 VH with T72R
VL: B2 VL
notes: huIgG1 P329G LALA; also called MFE-H28 / MFE-L27; huMFE23-L27-H28
B6: P1AE3096 (antibody, IgG1, V domains shown)
VH: B1 VH with A16S, M70I, T74E, I76T, R85S, D89E
VL: B2 VL with Y35L
notes: huIgG1 P329G LALA; also called MFE-H29 / MFE-L28
B7: P1AE3104 (antibody, IgG1, V domains shown)
VH: B1 VH with N97A, E98R
VL: B2 VL
notes: huIgG1 P329G LALA; also called MFE-H27 / MFE-L27
B8: P1AE3110 (antibody, IgG1, V domains shown)
VH: B1 VH with N97A, E98R
VL: B1 VL
notes: huIgG1 P329G LALA; also called MFE-H27 / MFE-L26
B9: P1AE3097 (antibody, IgG1, V domains shown)
VH: B1 VH with T72R
VL: B2 VL with Y35L
notes: huIgG1 P329G LALA; also called MFE-H28 / MFE-L28; huMFE23-L28-H28
B10: P1AE3119 (antibody, IgG1, V domains shown)
VH: B1 VH
VL: B2 VL with P30S, V77L
notes: huIgG1 P329G LALA; also called MFE-H24 / MFE-L25
B11: P1AE3101 (antibody, IgG1, V domains shown)
VH: B1 VH
VL: B2 VL with Y35L
notes: huIgG1 P329G LALA; also called MFE-H24 / MFE-L28; huMFE23-L28-H24
B12: P1AE3121 (antibody, IgG1, V domains shown)
VH: B1 VH with T72R
VL: B2 VL with E1D, P30S, V77L
notes: huIgG1 P329G LALA; also called MFE-H28 / MFE-L24
B13: P1AE3115 (antibody, IgG1, V domains shown)
VH: B1 VH with T72R
VL: B2 VL with P30S, V77L
notes: huIgG1 P329G LALA; also called MFE-H28 / MFE-L25
B14: P1AE3095 (antibody, IgG1, V domains shown)
VH: B1 VH
VL: B2 VL with Y35L, N52S, A54Q
notes: huIgG1 P329G LALA; also called MFE-H24 / MFE-L29
B15: P1AE3105 (antibody, IgG1, V domains shown)
VH: B1 VH with D57G, E59N, P62Q
VL: B2 VL
notes: huIgG1 P329G LALA; also called MFE-H26 / MFE-L27; huMFE23-L27-H26
B16: P1AE3098 (antibody, IgG1, V domains shown)
VH: B1 VH with N97A, E98R
VL: B2 VL with Y35L
notes: huIgG1 P329G LALA; also called MFE-H27 / MFE-L28
B17: P1AE3090 (antibody, IgG1, V domains shown)
VH: B1 VH with A16S, M70I, T74E, I76T, R85S, D89E
VL: B2 VL with Y35L, N52S, A54Q
notes: huIgG1 P329G LALA; also called MFE-H29 / MFE-L29
B18: P1AE3106 (antibody, IgG1, V domains shown)
VH: B1 VH with F27Y, N28T, I29F
VL: B2 VL
notes: huIgG1 P329G LALA; also called MFE-H25 / MFE-L27
B19: P1AE3109 (antibody, IgG1, V domains shown)
VH: B1 VH with T72R
VL: B1 VL
notes: huIgG1 P329G LALA; also called MFE-H28 / MFE-L26
B20: P1AE3091 (antibody, IgG1, V domains shown)
VH: B1 VH with T72R
VL: B2 VL with Y35L, N52S, A54Q
notes: huIgG1 P329G LALA; also called MFE-H28 / MFE-L29
B21: P1AE3094 (antibody, IgG1, V domains shown)
VH: B1 VH with F27Y, N28T, I29F
VL: B2 VL with Y35L, N52S, A54Q
notes: huIgG1 P329G LALA; also called MFE-H25 / MFE-L29
B22: P1AE3118 (antibody, IgG1, V domains shown)
VH: B1 VH with F27Y, N28T, I29F
VL: B2 VL with P30S, V77L
notes: huIgG1 P329G LALA; also called MFE-H25 / MFE-L25
B23: P1AE3112 (antibody, IgG1, V domains shown)
VH: B1 VH with F27Y, N28T, I29F
VL: B1 VL
notes: huIgG1 P329G LALA; also called MFE-H25 / MFE-L26
B24: P1AE3108 (antibody, IgG1, V domains shown)
VH: B1 VH with A16S, M70I, T74E, I76T, R85S, D89E
VL: B1 VL
notes: huIgG1 P329G LALA; also called MFE-H29 / MFE-L26
B25: P1AE3120 (antibody, IgG1, V domains shown)
VH: B1 VH with A16S, M70I, T74E, I76T, R85S, D89E
VL: B2 VL with E1D, P30S, V77L
notes: huIgG1 P329G LALA; also called MFE-H29 / MFE-L24
B26: P1AE3116 (antibody, IgG1, V domains shown)
VH: B1 VH with N97A, E98R
VL: B2 VL with P30S, V77L
notes: huIgG1 P329G LALA; also called MFE-H27 / MFE-L25
B27: P1AE3102 (antibody, IgG1, V domains shown)
VH: B1 VH with A16S, M70I, T74E, I76T, R85S, D89E
VL: B2 VL
notes: huIgG1 P329G LALA; also called MFE-H29 / MFE-L27; huMFE23-L27-H29
B28: P1AE3100 (antibody, IgG1, V domains shown)
VH: B1 VH with F27Y, N28T, I29F
VL: B2 VL with Y35L
notes: huIgG1 P329G LALA; also called MFE-H25 / MFE-L28; huMFE23-L28-H25
B29: P1AE3114 (antibody, IgG1, V domains shown)
VH: B1 VH with A16S, M70I, T74E, I76T, R85S, D89E
VL: B2 VL with P30S, V77L
notes: huIgG1 P329G LALA; also called MFE-H29 / MFE-L25
B30: P1AE3117 (antibody, IgG1, V domains shown)
VH: B1 VH with D57G, E59N, P62Q
VL: B2 VL with P30S, V77L
notes: huIgG1 P329G LALA; also called MFE-H26 / MFE-L25
B31: P1AE3099 (antibody, IgG1, V domains shown)
VH: B1 VH with D57G, E59N, P62Q
VL: B2 VL with Y35L
notes: huIgG1 P329G LALA; also called MFE-H26 / MFE-L28
B32: P1AE3092 (antibody, IgG1, V domains shown)
VH: B1 VH with N97A, E98R
VL: B2 VL with Y35L, N52S, A54Q
notes: huIgG1 P329G LALA; also called MFE-H27 / MFE-L29
B33: P1AE0096-001 MFE23 huIgG1 PG LALA (parental) (antibody, V domains shown)
VH: QVKLQQSGAELVRSGTSVKLSCTASGFNIKDSYMHWLRQGPEQGLEWIGWIDPENGDTEYAPKFQGKATFTTDTSSNTAYLQLSSLTSEDTAVYYCNEGTPTGPYYFDYWGQGTTVTVSS
VL: ENVLTQSPAIMSASPGEKVTITCSASSSVSYMHWFQQKPGTSPKLWIYSTSNLASGVPARFSGSGSGTSYSLTISRMEAEDAATYYCQQRSSYPLTFGAGTKLELK
notes: murine variable domains on huIgG1 P329G L234A L235A; also called parental murine MFE23 huIgG1 P329G LALA antibody

target: T1, human CEACAM5 (carcinoembryonic …); assay: flow cytometry, MKN45 cells; design: AUC: unit not given beside the values

| AUC | EC50 [nM] | Binder |
| --- | --- | --- |
| 757 | – | B1 |
| 91200 | 5.83 | B2 |
| 578 | – | B3 |
| 68100 | 16.1 | B4 |
| 92400 | 5.88 | B5 |
| 87800 | 10.5 | B6 |
| 414 | – | B7 |
| 547 | – | B8 |
| 98700 | 6.45 | B9 |
| 10300 | 41.9 | B10 |
| 104000 | 6.58 | B11 |
| 17500 | 17.1 | B12 |
| 10200 | 20.7 | B13 |
| 84900 | 11.1 | B14 |
| 55900 | 7.92 | B15 |
| 1190 | – | B16 |
| 61800 | 42 | B17 |

| AUC | EC50 [nM] | Binder |
| --- | --- | --- |
| 1130 | – | B18 |
| 695 | – | B19 |
| 83100 | 14.6 | B20 |
| 6910 | 47.6 | B21 |
| 559 | – | B22 |
| 551 | – | B23 |
| 2090 | – | B24 |
| 24200 | 12.4 | B25 |
| 443 | – | B26 |
| 91500 | 5.41 | B27 |
| 74100 | 9.89 | B28 |
| 12800 | 30.6 | B29 |
| 1180 | – | B30 |
| 95300 | 10.2 | B31 |
| 482 | – | B32 |
| 83500 | 9.36 | B33 |

target: T1, human CEACAM5 (carcinoembryonic …); assay: flow cytometry, MKN-45 cells, goat F(ab')2 anti-human Fcγ-PE, gMFI

| binding result | Binder |
| --- | --- |
| no binding (tested: about 300 nM) | B1 |
| no binding (tested: about 300 nM) | B3 |
| no binding (tested: about 300 nM) | B7 |
| no binding (tested: about 300 nM) | B8 |
| no binding (tested: about 300 nM) | B16 |
| no binding (tested: about 300 nM) | B18 |
| no binding (tested: about 300 nM) | B19 |
| no binding (tested: about 300 nM) | B22 |
| no binding (tested: about 300 nM) | B23 |
| no binding (tested: about 300 nM) | B24 |
| no binding (tested: about 300 nM) | B26 |
| no binding (tested: about 300 nM) | B30 |
| no binding (tested: about 300 nM) | B32 |
